120 sequences from the supplement of paper PMC10126150 can be followed below.

± gives the standard deviation of the averaged measurements.

The series has as its system ATP. Kind of series: switch fluorescence ratio, 500 uM ATP over buffer (Cy3 cluster intensity, sum of 5 cycles each) (fold (ratio)); higher = stronger signal-on switching upon ATP binding; sequences stand for … in TCGTCGGCAGCGTCAGATGTGTATAAGAGACAGTTTTTTTTTTTTTTTTTTTTTTTTT…TC. The note with it: aptamer strand: ATP DNA aptamer (quencher-CACCTGGGGGAGTATTGCGGAGGAAGG + anchor), 100 nM annealed; ATP concentration: 500 uM. In outline: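 Exposure to 500 uM ATP lasted 15 min at 22 °C before imaging, and a selection-buffer image was taken beforehand, for Cy3-labelled switching-strand clusters on a modified Illumina MiSeq flow-cell annealed to 100 nM quencher-labelled ATP aptamer. Five buffer/ATP cycles were run with NaOH stripping and re-annealing between them. The fluorescence ratio per cluster is summed target-cycle over summed buffer-cycle Cy3 intensity, averaged per switch-domain sequence. Clusters outside 100-1000 RFU were excluded.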

Consider GGGCTTAAAA, for which the switch fluorescence ratio worked out at 0.98424 ± 0.00098. Then GGGCTTGTAA, with 0.964 ± 0.012; and GGGCTTTAAG, with 1.03 ± 0.04; and GGGCTTTAAT, with 0.992 ± 0.015. The same measure for GGGCTTTCTG: 0.98 ± 0.05; for GGGCTTTGGG: 1.008 ± 0.0068; for GGGGAAAACG: 0.989 ± 0.015.

GGGGAAAAGC: the switch fluorescence ratio came out at 1.04 ± 0.014.

In the case of GGGGAAACAG, the switch fluorescence ratio came out at 1 ± 0.018. Consider GGGGAAACGT, for which the switch fluorescence ratio turned out to be 1.12 ± 0.035.

In the case of GGGGAAATCC, the switch fluorescence ratio stood at 1.02 ± 0.046. Then GGGGAAATTT, with 1.02 ± 0.028. Then GGGGAAGAAA, with 0.995 ± 0.027; and GGGGAAGCGC, with 1.01 ± 0.068; and GGGGAAGGG, with 1.12 ± 0.24. The same measure for GGGGAAGGGA: 1 ± 0.031. As to GGGGAAGGGC, the switch fluorescence ratio worked out at 1.02 ± 0.053. The same measure for GGGGAAGTGC: 1.01 ± 0.055; for GGGGAATACA: 1.02 ± 0.017; for GGGGAATGGA: 0.982 ± 0.028.

For the sequence GGGGAATTGA, the switch fluorescence ratio is 0.9919 ± 0.0013. The same measure for GGGGAATTGG: 0.994 ± 0.024; for GGGGACAAAT: 1.05 ± 0.0011; for GGGGACAGTG: 1.01 ± 0.13.

As for GGGGACCAAT, the switch fluorescence ratio was determined as 1 ± 0.016. Then GGGGACGGAC, with 1.04 ± 0.035. The same measure for GGGGACTGCG: 1.05 ± 0.023; for GGGGACTTAT: 1.02 ± 0.017; for GGGGACTTGT: 0.9988 ± 0.0082. As for GGGGACTTTG, the switch fluorescence ratio turned out to be 1.09 ± 0.073. Then GGGGACTTTT, with 0.99 ± 0.026; and GGGGAGAATG, with 0.9802 ± 0.0069; and GGGGAGAGAG, with 0.9747 ± 0.0073.

Turning to GGGGAGATTC, the switch fluorescence ratio stood at 0.994 ± 0.013.

On to GGGGAGCGAG, for which the switch fluorescence ratio was determined as 1.02 ± 0.046. As for GGGGAGCTAC, the switch fluorescence ratio stood at 1.17 ± 0.038.

On to GGGGAGGACA, for which the switch fluorescence ratio was found to be 1.04 ± 0.082. For GGGGAGGCCT, the switch fluorescence ratio was 1.01 ± 0.031.

On to GGGGAGGGAA, for which the switch fluorescence ratio was 1.01 ± 0.027. Then GGGGAGGTGT, with 1.05 ± 0.066. The same measure for GGGGAGTACT: 1.34 ± 0.44; for GGGGAGTATT: 0.971 ± 0.015; for GGGGAGTTTC: 1.065 ± 0.0042. The same measure for GGGGATAGAA: 0.982 ± 0.014; for GGGGATAGGG: 0.985 ± 0.016.

Take GGGGATATGA: the switch fluorescence ratio was determined as 0.995 ± 0.049.

With GGGGATCAGG, the switch fluorescence ratio amounted to 1.03 ± 0.075. GGGGATGAAT: the switch fluorescence ratio was determined as 1 ± 0.024.

For the sequence GGGGATGAGG, the switch fluorescence ratio was 0.9698 ± 0.0095. GGGGATTGGA: the switch fluorescence ratio is 0.979 ± 0.031. Then GGGGATTGGG, with 0.987 ± 0.028. The same measure for GGGGATTTAG: 0.971 ± 0.027; for GGGGATTTAT: 0.997 ± 0.019; for GGGGATTTCT: 0.99526 ± 0.00079. The same measure for GGGGCAAAGG: 1.03 ± 0.075; for GGGGCACAGC: 1 ± 0.016. For GGGGCACGTG, the switch fluorescence ratio was 0.995 ± 0.015. The same measure for GGGGCACTGC: 1.008 ± 0.0024; for GGGGCACTGT: 1.01 ± 0.013. The same measure for GGGGCAGTCA: 0.9785 ± 0.0031; for GGGGCATGGG: 0.995 ± 0.033. For GGGGCCCGGG, the switch fluorescence ratio was found to be 1.04 ± 0.036. The same measure for GGGGCCGGGG: 1.01 ± 0.018. On to GGGGCCGTTA, for which the switch fluorescence ratio is 1.012 ± 0.0042.

With GGGGCGGCAG, the switch fluorescence ratio is 0.998 ± 0.013. Then GGGGCGGCCC, with 1.03 ± 0.049. The same measure for GGGGCGGCGT: 1.02 ± 0.065; for GGGGCGGGAT: 1.01 ± 0.02. The same measure for GGGGCGGTCT: 0.9667 ± 0.004; for GGGGCGTAGT: 0.9995 ± 0.0075; for GGGGCGTGGG: 0.963 ± 0.042.

With GGGGCGTTAT, the switch fluorescence ratio amounted to 0.969 ± 0.048. Consider GGGGCTAATG, for which the switch fluorescence ratio was found to be 1.01 ± 0.023. Then GGGGCTAGAT, with 1.034 ± 0.0076.

Consider GGGGCTAGTA, for which the switch fluorescence ratio is 0.991 ± 0.035. The same measure for GGGGCTAGTG: 0.977 ± 0.046; for GGGGCTATTT: 1.01 ± 0.066; for GGGGCTGCAG: 1.09 ± 0.11. Then GGGGCTGTTG, with 0.966 ± 0.024. For GGGGCTTAAG, the switch fluorescence ratio turned out to be 1.02 ± 0.035. The same measure for GGGGCTTCTT: 0.9823 ± 0.0038; for GGGGCTTGAC: 1.01 ± 0.022. For GGGGCTTGGC, the switch fluorescence ratio stood at 0.999 ± 0.031. Then GGGGCTTGGG, with 0.989 ± 0.043; and GGGGGAAAAG, with 1.03 ± 0.1. Turning to GGGGGAAAAT, the switch fluorescence ratio stood at 0.993 ± 0.042. The same measure for GGGGGAACGG: 1.08 ± 0.1; for GGGGGAAGCG: 0.9685 ± 0.0034.

Regarding GGGGGAAGGC, the switch fluorescence ratio is 1.15 ± 0.23.

For GGGGGAAGTT, the switch fluorescence ratio stood at 0.986 ± 0.042. Take GGGGGAATCC: the switch fluorescence ratio was 1.06 ± 0.08.

On to GGGGGACAGC, for which the switch fluorescence ratio stood at 0.992 ± 0.023. The same measure for GGGGGACGGC: 0.985 ± 0.049.

With GGGGGACGGG, the switch fluorescence ratio is 1.02 ± 0.029. Then GGGGGACTAG, with 1.02 ± 0.024. With GGGGGACTTG, the switch fluorescence ratio is 0.997 ± 0.021. Then GGGGGAGACA, with 0.997 ± 0.027; and GGGGGAGGCG, with 1.03 ± 0.082. The same measure for GGGGGAGGT: 0.986 ± 0.038. Then GGGGGAGTGG, with 0.982 ± 0.054; and GGGGGATTCC, with 1.02 ± 0.017; and GGGGGCAAGA, with 0.999 ± 0.06. On to GGGGGCACG, for which the switch fluorescence ratio was determined as 1.006 ± 0.0098. The same measure for GGGGGCATCA: 1.07 ± 0.12; for GGGGGCCATG: 1.03 ± 0.068; for GGGGGCGGAC: 0.974 ± 0.097.

Turning to GGGGGCGGCA, the switch fluorescence ratio was 0.988 ± 0.042.

For the sequence GGGGGCGGGC, the switch fluorescence ratio came to 1.01 ± 0.081. Then GGGGGCGTGT, with 0.977 ± 0.019; and GGGGGCTAAA, with 1.02 ± 0.017. The same measure for GGGGGCTGCA: 1.02 ± 0.032.

Take GGGGGCTGGG: the switch fluorescence ratio worked out at 0.992 ± 0.025. The same measure for GGGGGCTTGG: 0.998 ± 0.032. The same measure for GGGGGGAAAC: 1 ± 0.022.

Regarding GGGGGGAAAT, the switch fluorescence ratio is 1.01 ± 0.057. For the sequence GGGGGGACGG, the switch fluorescence ratio came out at 0.969 ± 0.04. The same measure for GGGGGGACTT: 0.983 ± 0.029; for GGGGGGAGTC: 1.05 ± 0.028. Then GGGGGGAGTG, with 0.975 ± 0.029. Then GGGGGGATTG, with 0.99 ± 0.025.
